Experimental data reported in patent US20090317326A1 (published 2009).

B1: 3-CN,4-F-Benzoyl-Arg-Ava-Gln-Trp-Ala-Val-Gly-His(3Me)-Sta-Leu-NH2 (peptide)
peptide: RXQWAVGHXL
modifications: not fully specified; N-terminal 3-cyano-4-fluoro-benzoyl group (F is 18F or 19F); Ava (5-aminovaleric acid) spacer; His(3Me) (3-methylhistidine); Sta (statine); C-terminal amide
notes: Synthetic bombesin analog
B2: 3-CF3,4-F-Benzoyl-Arg-Ava-Gln-Trp-Ala-Val-NMeGly-His-Sta-Leu-NH2 (peptide)
peptide: RXQWAVGHXL
modifications: not fully specified; N-terminal 3-trifluoromethyl-4-fluoro-benzoyl group (F is 18F or 19F); Ava (5-aminovaleric acid) spacer; NMeGly (N-methylglycine); Sta (statine); C-terminal amide
notes: Synthetic bombesin analog
B3: 4F,3CN-Bnz-Arg-Ava-Gln-Trp-Ala-Val-NMeGly-His(3Me)-Sta-Leu-NH2 (peptide)
peptide: RXQWAVGHXL
modifications: not fully specified; N-terminal 3-cyano-4-fluoro-benzoyl group (F is 18F or 19F); Ava (5-aminovaleric acid) spacer; NMeGly (N-methylglycine); His(3Me) (3-methylhistidine); Sta (statine); C-terminal amide
notes: Synthetic bombesin analog
B4: 3-CN,4-F-Benzoyl-Arg-Ava-Gln-Trp-Ala-Val-NMeGly-His-Sta-Leu-NH2 (peptide)
peptide: RXQWAVGHXL
modifications: not fully specified; N-terminal 3-cyano-4-fluoro-benzoyl group (F is 18F or 19F); Ava (5-aminovaleric acid) spacer; NMeGly (N-methylglycine); Sta (statine); C-terminal amide
notes: Synthetic bombesin analog

The binders below were run against T1, human GRP receptor (human, UniProt P30550 1-384) (assay: binding affinity (IC50); assay format, labelled ligand and receptor source not described).
T1 construct: also called Gastrin-releasing peptide (GRP) receptor; GRP receptors
T1 sequence (P30550 whole entry): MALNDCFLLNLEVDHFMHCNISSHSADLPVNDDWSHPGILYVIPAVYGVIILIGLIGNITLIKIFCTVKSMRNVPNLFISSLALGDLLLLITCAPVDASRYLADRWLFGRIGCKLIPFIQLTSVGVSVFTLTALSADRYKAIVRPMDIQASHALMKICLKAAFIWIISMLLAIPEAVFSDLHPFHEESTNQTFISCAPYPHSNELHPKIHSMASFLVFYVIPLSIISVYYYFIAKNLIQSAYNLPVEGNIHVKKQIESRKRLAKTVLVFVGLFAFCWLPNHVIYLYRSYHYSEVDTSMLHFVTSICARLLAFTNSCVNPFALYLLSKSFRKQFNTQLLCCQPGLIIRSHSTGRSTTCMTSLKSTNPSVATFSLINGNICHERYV

B1 and B2 cannot be ordered by IC50: 1 nM for the first, 0.3 to 1.8 nM for the second.

B3 and B4 cannot be ordered by IC50: 2.3 nM for the first, 1.9 to 2.7 nM for the second.
